# Results as given in US20230220007A1, “SETD7 EPIGENETIC MODULATORS” (Biorchestra Co., Ltd., priority 2020, published 2023).
# Residue numbers refer to the chain shown, from its start. Names may count otherwise.
# B1: K317A: SETD7 substitution mutant at position 317 (protein)
# chain: MDSDDEMVEEAVEGHLDDDGLPHGFCTVTYSSTDRFEGNFVHGEKNGRGKFFFFDGSTLEGYYVDDALQGQGVYTYEDGGVLQGTYVDGELNGPAQEYDTDGRLIFKGQYKDNIRHGVCWIYYPDGGSLVGEVNEDGEMTGEKIAYVYPDERTALYGKFIDGEMIEGKLATLMSTEEGRPHFELMPGNSVYHFDKSTSSCISTNALLPDPYESERVYVAESLISSAGEGLFSKVAVGPNTVMSFYNGVRITHQEVDSRDWALNGNTLSLDEETVIDVPEPYNHVSKYCASLGHKANHSFTPNCIYDMFVHPRFGPIACIRTLRAVEADEELTVAYGYDHSPPGKSGPEAPEWYQVELKAFQATQQK
# B2: SETD7 S340A: SETD7 mutant, Ser340 mutated to alanine; cannot be phosphorylated (protein)
# chain: B1 chain with A317K, S340A
# B3: SETD7 T332A: SETD7 mutant, Thr332 mutated to alanine; cannot be phosphorylated (protein)
# chain: B1 chain with A317K, T332A
# B4: SETD7 S340D: SETD7-GFP mutant with phospho-mimicking substitution S340D (protein, UniProt Q8WTS6 1-366, looked up, variant S340D)
# Histone-lysine …: B1 chain with A317K, S340D
# modifications: GFP tag
# B5: SETD7 H297A/T332E/S340D/S345D: catalytically inert phospho-mimicking SETD7 mutant due to the H297A mutation (protein)
# chain: B1 chain with H297A, A317K, T332E, S340D, S345D
# B6: SETD7 T332E/S340D/S345D: SETD7-GFP mutant with three phospho-mimicking substitutions (protein, UniProt Q8WTS6 1-366, looked up, variant T332E S340D S345D)
# Histone-lysine …: B1 chain with A317K, T332E, S340D, S345D
# modifications: GFP tag
# notes: SETD7-GFP mutant with three phospho-mimicking substitutions
# B7: SETD7 T332E: SETD7-GFP mutant with phospho-mimicking substitution T332E (protein, UniProt Q8WTS6 1-366, looked up, variant T332E)
# Histone-lysine …: B1 chain with A317K, T332E
# modifications: GFP tag
# Columns and labels:
# H3 and p53/TP53 = conditions: cited from earlier work
# TAF10 = conditions: cited from earlier work
# [1] = system: human retinal pigment epithelial (RPE) cells; experiment: Cellular distribution of SETD7-GFP mutants under low or high glucose (GFP fluorescence); assay type: cell-based; conditions: SETD7-GFP mutants in human RPE cells; low glucose and high glucose conditions; FIG. 4
# Experimental: SETD7-GFP mutants with phospho-mimicking substitutions at positions 332, 340 and/or 345 were prepared. The phospho-mimicking substitutions were T332E, S340D, and/or S345D. The SETD7-GFP mutants were expressed in human retinal pigment epithelial (RPE) cells. The fluorescence intensity emitted from the GFP signal in the cells under high or low glucose condition was measured.
# [2] = system: human retinal pigment epithelial cells (RPE); experiment: Nuclear translocation of SETD7 alanine (phospho-disrupting) mutants in response to high glucose levels; assay type: cell-based; conditions: mutants expressed in human RPE cells; FIG. 3
# From the text: To identify the potential role of phosphorylatable sites located in the C-terminal regions of SETD7 (FIG. 1), phosphorylatable serines, threonines and tyrosines at positions 225, 305, 332, 340, and 345 where mutated to alanine (phospho-disrupting mutations) and expressed in human retinal pigment epithelial cells (RPE). Nuclear translocation or lack thereof in response to high glucose levels was examined (FIG. 2).
# SETD7 cellular distribution changed in response to changes in glucose levels for wild type SETD7 (WT) and SETD7 mutants comprising a S225A substitution or a Y305A substitutions.
Molecule,methyltransferase activity for H3 and p53/TP53 (H3 and p53/TP53),methyltransferase activity toward TAF10 (TAF10),translocation to the nucleus [1],nuclear translocation in response to changes in glucose [2]
B1,increased,reduction,,
B2,,,not translocated to the nucleus,did not translocate to the nucleus
B3,,,not translocated to the nucleus,did not translocate to the nucleus
B4,,,translocated to the nucleus,
B5,,,translocated to the nucleus,
B6,,,translocated to the nucleus,
B7,,,translocated to the nucleus,
